# Earlier results, collected in US11207433B2, “Imaging agents and uses thereof” (Washington University, priority 2018, dated 2021).
# Bridges are numbered along the chain shown (N, C = ends). Where no end group is shown, it is not given here.
# Molecular target: T1, NPR-C receptor (Homo sapiens, UniProt P17342)
# T1 sequence (P17342 27-541): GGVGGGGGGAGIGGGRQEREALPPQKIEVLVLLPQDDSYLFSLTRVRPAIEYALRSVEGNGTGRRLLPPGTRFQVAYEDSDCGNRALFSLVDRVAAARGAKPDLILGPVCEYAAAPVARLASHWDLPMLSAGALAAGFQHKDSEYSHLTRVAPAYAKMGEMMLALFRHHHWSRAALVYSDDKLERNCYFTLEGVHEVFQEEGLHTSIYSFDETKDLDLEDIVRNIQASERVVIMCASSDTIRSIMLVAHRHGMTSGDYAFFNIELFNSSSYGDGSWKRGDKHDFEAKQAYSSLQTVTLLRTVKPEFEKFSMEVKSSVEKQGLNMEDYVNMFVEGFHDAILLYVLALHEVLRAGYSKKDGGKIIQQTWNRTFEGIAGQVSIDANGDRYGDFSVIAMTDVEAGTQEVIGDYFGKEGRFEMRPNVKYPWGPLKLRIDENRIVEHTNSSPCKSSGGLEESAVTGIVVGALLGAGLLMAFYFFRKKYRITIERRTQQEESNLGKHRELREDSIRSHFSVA
# Conditions: in vivo
substance,measurement,value
"^64Cu-DOTA-CANF-Comb: CANF peptide functionalized polymeric nanoparticle, described in U.S. Patent Application Publication No. 2011/0300071 (RSSCFGGRIDRIGAC-NH2; disulfide 4-15; also: conjugated to polymeric nanoparticle, DOTA chelator, 64Cu label)",delay from injection to optimal PET imaging time,~12 h
